Laboratory results taken from the supplement of paper PMC9170038.

Assays:
MS2 coat protein [1] = assay: apparent KD of MS2 coat protein, switch ON state; designed switch direction (-1 OFF switch, 1 ON switch): -1; higher = weaker reporter binding; settings: FMN input: 0 or 200 uM; Eterna round: R93 (includes R88 designs)
In short: (§1)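 For every design, apparent KD is the median of normalised binding-curve fits from its clusters. The RNA switches were transcribed on-chip from Illumina sequencing clusters and titrated with SNAP-549-labelled MS2 coat protein (twofold steps, 0.7 or 1.5 nM to 3 µM; 0.8–1.5 h to 10–20 min per step). Titrations used 100 mM Tris-HCl pH 7.5, 80 mM KCl, 4 mM MgCl2, without or with constant ligand.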

MS2 coat protein [2] = assay: apparent KD of MS2 coat protein, switch OFF state (with FMN for OFF switches, without FMN for ON switches); designed switch direction (-1 OFF switch, 1 ON switch): -1; higher = weaker reporter binding; settings: FMN input: 0 or 200 uM; Eterna round: R93 (includes R88 designs)
In short: as §1

| Sequence | apparent KD of MS2 coat protein (MS2 coat protein [1]) | apparent KD of MS2 coat protein (MS2 coat protein [2]) |
| --- | --- | --- |
| AAAAAGUGAGGAUAUACAUGAGGAUCACCCAUGUGAAAGUCGAAAAAAAAGACAAGAAGUAGAAGGCACAAAAA [Fiskers Exclusion 3 D2 variant] | 24.3 nM | 29.3 nM |
| AAAAGUGGAGGAUAUACAUGAGGAUCACCCAUGUGUAAAAAUAAAUACACAAAAGAAAGUAGAAGGCCACAAAG [Mat - Exclusion 3 - Mayanna mod - D117] | 32.2 nM | 128 nM |
| GGAAAACAUGAGGAUCACCCAUGUGAGGAUAUCGAUGUCCAAAAAAGAGUGCGGGACUCGAGAAGGCACUUGGA [salish99-ex1-43] | 49.3 nM | 32.5 nM |
| ACCGAUCGAGGAUAUACAUGAGGAUCACCCAUGUAACCCAGAAGAAAGGCCUCAGGAUGUAGAAGGCGACGCAA [JR_Exc003_Sub406] | 16.3 nM | 17.7 nM |
| AACAGUACAGGAUAUACAUGAGGAUCACCCAUGUAAAGGGAAUAAAACUAAAAUAAAAGUAGAAGGGUACUGGA [Moding Maslow revisited (73) 20] | 50.9 nM | 92.6 nM |
| CACGGGUUAGGAUAUGCAUGGUGAAAAGACGCGAUCCUUAGACAUGAGGAUCACCCAUGUAGAAGGAACGCGAU [Reonisar] | 17.2 nM | 15 nM |
| AAGAGUAGAGGAUAUACGAAAAAAGAGUCGAAAGACUCGGGACAUGAGGAUCACCCAUGUAGAAGGCUACUCAA [Hyphema Seclusion Mod 62% 5] | 22 nM | 110 nM |
| AAGAAGUGAGGAUAUCGAAGACUGUCGAAAAGACAGUCGAACGAGAAGGCACAUGAGGAUCACCCAUGUGGGAA [Marsurpial 65% 6] | 77.1 nM | 171 nM |
| AGCUAGUCAGGAUAUACGAACAGGUCAAAAGACCUGAAGGGACAUGAGGAUCACCCAUGUAGAAGGGACUAGCA [Mat - Exclusion 2 - JL mod - D28] | 25.8 nM | 131 nM |
| AAAGAUGGAGGAUAUACAUGAGGAUCACCCAUGUAGAAAAAAAAUUGGGAAAAAGAAAGUAGAAGGCCAAAAAA [Ex 3 May 43] | 38.7 nM | 72.9 nM |
| AAAGGACGAGGAUAUACAUGAGGAUCACCCAUGUAAAAAACGUAAUAAAAUAACUUAUGUAGAAGGCGUCCAAA [Mat - Exclusion 3 - Eli mod - D98] | 26.3 nM | 214 nM |
| AAAACUGGAGGAUAUACAUGAGGAUCACCCAUGUGUGGGUGGGCUGUGUCGGCGUCAGGUAGAAGGCCACAAAA [Gilly Gone Silly 33 - Jieux - Exclusion 3] | 201 nM | 108 nM |
| AAGAAGGGAGGAUAUACAAAAUAAAAGAAAAGAAAGAAAGAACAUGAGGAUCACCCAUGUAGAAGGUCCAAGAA [Imyremeshaw] | 48.1 nM | 71 nM |
| AUGGUACAUGAGGAUCACCCAUGUCAGGAUAUCGGCUGUGACAUGAAAAAAAUGUUAGUGAGAAGGGACUGUAA [EX1 Malc#18 Mod 4 - Jieux - Exclusion 1] | 85.4 nM | 102 nM |
| GUAGAGUGAGGAUAUGAUUAAAAGAAGGGAAAGAGACAGCAUCAGAAGGCACAUGAGGAUCACCCAUGUAUGAA [JR_Exc004_Sub1224] | 26.9 nM | 27.1 nM |
| AGGUUGUCAGGAUAUGCGUGAAGAAUAAAACAAAUAACAACGCAGAAGGGACAUGAGGAUCACCCAUGUUAAGA [May 47] | 39.8 nM | 48.3 nM |
| AAGAACGAAGGAUAUACAUGAGGAUCACCCAUGUAAAAGAAAGAAAGGGAAAAGAAAAGUAGAAGGUCGAAGAA [Sekhemkheperre Osorkon I] | 28.3 nM | 31.2 nM |

| Sequence | apparent KD of MS2 coat protein (MS2 coat protein [1]) | apparent KD of MS2 coat protein (MS2 coat protein [2]) |
| --- | --- | --- |
| AGUCGGCGAGGAUAUACAUGAGGAUCACCCAUGUGAGAGAAUAAAGUGAGUUAGACAAGUAGAAGGCGCUGACA [JL Lego Mod 10] | 40.5 nM | 226 nM |
| UAAAGACAUGAGGAUCACCCAUGUGAGGAUAUCGGAGAUAACAGAACAUCAAGUUCAACGAGAAGGCACAGAAA [JR_Exc001_Sub401] | 47.4 nM | 94.7 nM |
| AAGGGACAUGAGGAUCACCCAUGUGAGGAUAUGCUAUGGAAAUAAAAAAUAAAACAUAGCAGAAGGCAUAAAAA [Mat - Exclusion 1 - Eli mod - D38] | 69.3 nM | 60.5 nM |
| CAAGGUGGAGGAUAUACAUGAGGAUCACCCAUGUAAGGACAAUAAAUAAGAUGAAGAAGUAGAAGGCCACUCAA [e3-3] | 41.5 nM | 42.1 nM |
| AGCUAGCAAGGAUAUGCGAACAUGUCAAAAGACGUGAAGGGACAUGAGGAUCACCCAUGUAGAAGGUGCUAGCA [JL 74% mod 9] | 35.7 nM | 27.6 nM |
| AUCUUGUCAGGAUAUGACUACAUAAAAAAAAAAAAAUGUAGUCAGAAGGGACAUGAGGAUCACCCAUGUACCAA [HSL_Exclusion 4 64% 2] | 29.1 nM | 24.1 nM |
| AAGAACGGAGGAUAUACAUGAGGAUCACCCAUGUAAAAGAAAGAAGGGAAAGAGAAAAGUAGAAGGCCGAAGAA [Usermaatre-setepenamun Pedubast] | 28.1 nM | 50.8 nM |
| AAGAACUCAGGAUAUACUAAAGAAAUGAAAAGAAAGAAAGAACAUGAGGAUCACCCAUGUAGAAGGGAGAAGAA [Qareh Khawoserre] | 86.4 nM | 35.4 nM |
| GAAAAGUCAGGAUAUGUGGAAAAAAUAAAAAAAAUAAAAACACAGAAGGGACAUGAGGAUCACCCAUGUAAAAG [Mat - Exclusion 4 - Mayanna - D141] | 101 nM | 62.2 nM |
| GGUUGGGUAGGAUAUACAUGAGGAUCACCCAUGUGAGAGAAAAAAGUGAGAAAGAAAAGUAGAAGGGCUUGACG [salish99-ex3-67] | 80.3 nM | 58.7 nM |
| AAGAACGUAGGAUAUACUAAAGAAAUGAAAAGAAAUAAAGAACAUGAGGAUCACCCAUGUAGAAGGACGAAGAA [Nebdjefare] | 29.1 nM | 25.2 nM |
| AGAAACGUAGGAUAUACAUGAGGAUCACCCAUGUAAAGAAAGAAGGGAGAAAGAAGAAGUAGAAGGACGAAGAA [JR_Exc003_Sub003] | 19.2 nM | 59.9 nM |
| AAGAACUCAGGAUAUACAUGAAAGAAAGAAAAGAAAAGAAAACAUGAGGAUCACCCAUGUAGAAGGGAGAAGAA [EteRNA is fun!] | 39.7 nM | 30.6 nM |
| AGCAAGUCAGGAUAUACGAACAAGACAAAAGACGUGAAGGGACAUGAGGAUCACCCAUGUAGAAGGGACAAGCA [74%, Web mod - With 4 less U's] | 79.1 nM | 55.8 nM |
| AACAGUACAGGAUAUACAUGAGGAUCACCCAUGUGACAGAAAUAAAACAAAAAUAAAAGUAGAAGGGUACUGGA [Ruby 42] | 31 nM | 61.2 nM |
| AAGUUGCUAGGAUAUACUUGGGCAACAAAUGAACCAAUAUAACAUGAGGAUCACCCAUGUAGAAGGAGCAGAAA [JR_Exc002_Sub301] | 35.2 nM | 63.5 nM |
| AACAAAUGAGGAUAUACAAACAAAAAAAACAAACAAAACAAACAUGAGGAUCACCCAUGUAGAAGGCAUAAACA [JR_Exc002_Sub901] | 24.8 nM | 24.5 nM |
